Laboratory results as given in patent US20170166643A1 (OSE IMMUNOTHERAPEUTICS, published 2017).
Values joined by “and” are separate entries in the source; they are usually repeats but may differ in a detail not shown here. Equal values may be shown once.

Target: T1, Recombinant human CD28 (R&D Systems) (human, UniProt P10747 19-152)
T1 construct: Coated on microtiter plates at 1 ug/mL; also called recombinant CD28
Test: ELISA on immobilized recombinant human CD28, purified Mono28Fc

EC50: 0.1 µg/mL and 1.16 nM
B1: Mono28Fc, recombinant monovalent antibody derived from the anti-CD28 antibody CD28.3 (heterodimer VH-CH2CH3 + VL-CH2CH3, human IgG1 CH2-CH3) (antibody, V domains shown)
VH: VKLQQSGAELVKPGASVRLSCKASGYTFTEYIIHWIKLRSGQGLEWIGWFYPGSNDIQYNAKFKGKATLTADKSSSTVYMELTGLTSEDSAVYFCARRDDFSGYDALPYWGQGTMVTVSS
VL: DIQMTQSPASLSVSVGETVTITCRTNENIYSNLAWYQQKQGKSPQLLIYAATHLVEGVPSRFSGSGSGTQYSLKITSLQSEDFGNYYCQHFWGTPCTFGGGTKLEIKR
notes: Expressed in COS cells from pSecTag2B with the mouse Ig kappa leader (cleaved on secretion); also called co-transfection with pSec-VH-Fc(CH2-CH3) and pSec-VL-Fc(CH2-CH3)
